# Reference: patent US20080279847A1
# Key:
# [1] = biological target: tumor-associated glycoprotein-72 (TAG-72), used as TAG-72-positive BSM (bovine submaxillary mucin, type-1-S, Sigma) (bovine); assay: competitive ELISA, whole IgG, reference 3E8
# [2] = biological target: tumor-associated glycoprotein-72 (TAG-72), used as TAG-72-positive BSM (bovine submaxillary mucin, type-1-S, Sigma) (bovine); assay: competitive ELISA, whole IgG expressed in animal cells, reference 3E8 whole IgG (FIG. 9)
# [3] = biological target: tumor-associated glycoprotein-72 (TAG-72), used as TAG-72-positive BSM (bovine submaxillary mucin, type-1-S, Sigma) (bovine); assay: competitive ELISA, whole IgG in COS7 culture supernatant
binder,measurement,setting,value
"humanized antibody 3E8/BSM22 (whole IgG form) (antibody, V domains shown) VH: QVQLVQSGAEVKKPGASVKVSCKASGYTFTDHAIHWVRQAPGQRLEWMGYFSPGNDDFKYSQKFQGRVTITADKSASTAYMELSSLRSEDTAVYYCARSWIMQYWGQGTLVTVSS VL: DIVMTQSPDSLAVSLGERATIHCKSSQSILYSSNNKNYLAWYQQKPGQPPKLLLYWASTREAGVPDRFSGGGSGTDFTLTISSLQPEDSATYYCQQYNTYPLTFGGGTKVEIK",fold higher antigen binding affinity than the 3E8 antibody,[1],1.5 fold
same,fold higher antigen binding affinity than the 3E8 antibody,[2],1.5 fold
same,Kd,[3],0.45 nM
